Measurements as given in patent publication US7771961B2, “Cytochrome c acetylation” (Elixir Pharmaceuticals, Inc, priority 2002, dated 2010).

B1: cell derived SIRT3: SIRT3 enzyme derived from pull down of 293T cell extracts (protein)
chain: MAFWGWRAAAALRLWGRVVERVEAGGGVGPFQACGCRLVLGGRDDVSAGLRGSHGARGEPLDPARPLQRPPRPEVPRAFRRQPRAAAPSFFFSSIKGGRRSISFSVGASSVVGSGGSSDKGKLSLQDVAELIRARACQRVVVMVGAGISTPSGIPDFRSPGSGLYSNLQQYDLPYPEAIFELPFFFHNPKPFFTLAKELYPGNYKPNVTHYFLRLLHDKGLLLRLYTQNIDGLERVSGIPASKLVEAHGTFASATCTVCQRPFPGEDIRADVMADRVPRCPVCTGVVKPDIVFFGEPLPQRFLLHVVDFPMADLLLILGTSLEVEPFASLTEAVRSSVPRLLINRDLVGPLAWHPRSRDVAQLGDVVHGVESLVELLGWTEEMRDLVQRETGKLDGPDK
modifications: left off: large carriers
notes: SIRT3 enzyme derived from pull down of 293T cell extracts
B2: recombinant GST-SIRT2: recombinant GST fusion of human SIRT2, NAD-dependent deacetylase (protein)
chain: MAEPDPSHPLETQAGKVQEAQDSDSDSEGGAAGGEADMDFLRNLFSQTLSLGSQKERLLDELTLEGVARYMQSERCRRVICLVGAGISTSAGIPDFRSPSTGLYDNLEKYHLPYPEAIFEISYFKKHPEPFFALAKELYPGQFKPTICHYFMRLLKDKGLLLRCYTQNIDTLERIAGLEQEDLVEAHGTFYTSHCVSASCRHEYPLSWMKEKIFSEVTPKCEDCQSLVKPDIVFFGESLPARFFSCMQSDFLKVDLLLVMGTSLQVQPFASLISKAPLSTPRLLINKEKAGQSDPFLGMIMGLGGGMDFDSKKAYRDVAWLGECDQGCLALAELLGWKKELEDLVRREHASIDAQSGAGVPNPSTSASPKKSPPPAKDEARTTEREKPQ
modifications: left off: a dimerising Fc or GST
notes: recombinant GST fusion of human SIRT2, NAD-dependent deacetylase
B3: recombinant GST-SIRT3: recombinant GST fusion of a fragment of human SIRT3 lacking the first 100 amino acids of the N-terminus (protein)
chain: SISFSVGASSVVGSGGSSDKGKLSLQDVAELIRARACQRVVVMVGAGISTPSGIPDFRSPGSGLYSNLQQYDLPYPEAIFELPFFFHNPKPFFTLAKELYPGNYKPNVTHYFLRLLHDKGLLLRLYTQNIDGLERVSGIPASKLVEAHGTFASATCTVCQRPFPGEDIRADVMADRVPRCPVCTGVVKPDIVFFGEPLPQRFLLHVVDFPMADLLLILGTSLEVEPFASLTEAVRSSVPRLLINRDLVGPLAWHPRSRDVAQLGDVVHGVESLVELLGWTEEMRDLVQRETGKLDGPDK
modifications: left off: a dimerising Fc or GST
notes: recombinant GST fusion of a fragment of human SIRT3 lacking the first 100 amino acids of the N-terminus

Key:
[1] = system: chemically acetylated cytochrome c; test: 14C-nicotinamide release assay of deacetylation activity; assay type: biochemical; conditions: in vitro, enzyme from pull down of 293T cell extracts, GFP as control
Protocol: (§1) The activity of these proteins was determined in vitro using either a ^14C-nicotinamide release assay or a titrated acetate release assay.
Cell derived GST-SIRT3 deacetylation activity was tested on chemically acetylated cytochrome c. The SIRT3 was derived from “pull down” 293T extracts.
Deacetylation activity was determined in vitro using a ^14C-nicotinamide release assay. Deacetylation was determined for GFP (control) with chemically acetylated cytochrome c, SIRT3-GFP with chemically acetylated cytochrome c, and SIRT3-GFP with histone 4.

[2] = system: chemically acetylated cytochrome c; test: titrated acetate release assay of deacetylation activity; assay type: biochemical; conditions: in vitro, in the presence and absence of NAD
Protocol: as §1
(§2) Recombinant GST-SIRT2 deacetylation activity was tested on chemically acetylated cytochrome c in the presence and absence of NAD. Deacetylation activity was determined in vitro using a titrated acetate release assay.
as §2, with “GST-SIRT3” for “GST-SIRT2”, “NAD. The recombinant SIRT3 was a fragment of human SIRT3 lacking the first 100 amino acids of the N-terminus of full length human SIRT3.” for “NAD.”

Molecule	deacetylation activity on chemically acetylated cytochrome c [1]	deacetylation activity on chemically acetylated cytochrome c [2]
B1	deacetylates cytochrome c	–
B2	–	deacetylates cytochrome c in a NAD dependent manner
B3	–	deacetylates cytochrome c in a NAD dependent manner
